Target: the molecule itself
Assay: SEC; HiLoad 16/600 Superdex 200 in buffer B (20 mM Tris-HCl, pH 7.5, 150 mM NaCl, 10% glycerol, 100 μM TCEP, 20 μM PLP), after the HisTrap step of the purification

Protein | stoichiometry N
wild-type human cystathionine γ-lyase (enzyme, UniProt P32929 1-405, looked up, human cystathionine γ-lyase (CSE), wild type; TEV and 3C protease recognition sites follow the His6 tag; No cleavage of the tag is told; also called CSE; WT CSE; source: recombinant, synthetic gene in pET-28b, purified (HisTrap FF Crude, Superdex 200 SEC)) MQEKDASSQGFLPHFQHFATQAIHVGQDPEQWTSRAVVPPISLSTTFKQGAPGQHSGFEYSRSGNPTRNCLEKAVAALDGAKYCLAFASGLAATVTITHLLKAGDQIICMDDVYGGTNRYFRQVASEFGLKISFVDCSKIKLLEAAITPETKLVWIETPTNPTQKVIDIEGCAHIVHKHGDIILVVDNTFMSPYFQRPLALGADISMYSATKYMNGHSDVVMGLVSVNCESLHNRLRFLQNSLGAVPSPIDCYLCNRGLKTLHVRMEKHFKNGMAVAQFLESNPWVEKVIYPGLPSHPQHELVKRQCTGCTGMVTFYIKGTLQHAEIFLKNLKLFTLAESLGGFESLAELPAIMTHASVLKNDRDVLGISDTLIRLSVGLEDEEDLLEDLDQALKAAHPPSGSHS | 4
human cystathionine γ-lyase C84S variant (enzyme, UniProt P32929 1-405, looked up, human cystathionine γ-lyase (CSE) with C84S; TEV and 3C protease recognition sites follow the His6 tag; also called C84S CSE; source: recombinant, pET-28b, site-directed mutagenesis of the WT vector, purified (HisTrap FF Crude, Superdex 200 SEC)) MQEKDASSQGFLPHFQHFATQAIHVGQDPEQWTSRAVVPPISLSTTFKQGAPGQHSGFEYSRSGNPTRNCLEKAVAALDGAKYSLAFASGLAATVTITHLLKAGDQIICMDDVYGGTNRYFRQVASEFGLKISFVDCSKIKLLEAAITPETKLVWIETPTNPTQKVIDIEGCAHIVHKHGDIILVVDNTFMSPYFQRPLALGADISMYSATKYMNGHSDVVMGLVSVNCESLHNRLRFLQNSLGAVPSPIDCYLCNRGLKTLHVRMEKHFKNGMAVAQFLESNPWVEKVIYPGLPSHPQHELVKRQCTGCTGMVTFYIKGTLQHAEIFLKNLKLFTLAESLGGFESLAELPAIMTHASVLKNDRDVLGISDTLIRLSVGLEDEEDLLEDLDQALKAAHPPSGSHS | 4
human cystathionine γ-lyase C70S variant (enzyme, UniProt P32929 1-405, looked up, human cystathionine γ-lyase (CSE) with C70S; TEV and 3C protease recognition sites follow the His6 tag; also called C70S CSE; source: recombinant, pET-28b, site-directed mutagenesis of the WT vector, purified (HisTrap FF Crude, Superdex 200 SEC)) MQEKDASSQGFLPHFQHFATQAIHVGQDPEQWTSRAVVPPISLSTTFKQGAPGQHSGFEYSRSGNPTRNSLEKAVAALDGAKYCLAFASGLAATVTITHLLKAGDQIICMDDVYGGTNRYFRQVASEFGLKISFVDCSKIKLLEAAITPETKLVWIETPTNPTQKVIDIEGCAHIVHKHGDIILVVDNTFMSPYFQRPLALGADISMYSATKYMNGHSDVVMGLVSVNCESLHNRLRFLQNSLGAVPSPIDCYLCNRGLKTLHVRMEKHFKNGMAVAQFLESNPWVEKVIYPGLPSHPQHELVKRQCTGCTGMVTFYIKGTLQHAEIFLKNLKLFTLAESLGGFESLAELPAIMTHASVLKNDRDVLGISDTLIRLSVGLEDEEDLLEDLDQALKAAHPPSGSHS | 4
human cystathionine γ-lyase C310S variant (enzyme, UniProt P32929 1-405, looked up, human cystathionine γ-lyase (CSE) with C310S; TEV and 3C protease recognition sites follow the His6 tag; also called C310S CSE; source: recombinant, pET-28b, site-directed mutagenesis of the WT vector, purified (HisTrap FF Crude, Superdex 200 SEC)) MQEKDASSQGFLPHFQHFATQAIHVGQDPEQWTSRAVVPPISLSTTFKQGAPGQHSGFEYSRSGNPTRNCLEKAVAALDGAKYCLAFASGLAATVTITHLLKAGDQIICMDDVYGGTNRYFRQVASEFGLKISFVDCSKIKLLEAAITPETKLVWIETPTNPTQKVIDIEGCAHIVHKHGDIILVVDNTFMSPYFQRPLALGADISMYSATKYMNGHSDVVMGLVSVNCESLHNRLRFLQNSLGAVPSPIDCYLCNRGLKTLHVRMEKHFKNGMAVAQFLESNPWVEKVIYPGLPSHPQHELVKRQCTGSTGMVTFYIKGTLQHAEIFLKNLKLFTLAESLGGFESLAELPAIMTHASVLKNDRDVLGISDTLIRLSVGLEDEEDLLEDLDQALKAAHPPSGSHS | 4
human cystathionine γ-lyase C229S variant (enzyme, UniProt P32929 1-405, looked up, human cystathionine γ-lyase (CSE) with C229S; TEV and 3C protease recognition sites follow the His6 tag; also called C229S CSE; source: recombinant, pET-28b, site-directed mutagenesis of the WT vector, purified (HisTrap FF Crude, Superdex 200 SEC)) MQEKDASSQGFLPHFQHFATQAIHVGQDPEQWTSRAVVPPISLSTTFKQGAPGQHSGFEYSRSGNPTRNCLEKAVAALDGAKYCLAFASGLAATVTITHLLKAGDQIICMDDVYGGTNRYFRQVASEFGLKISFVDCSKIKLLEAAITPETKLVWIETPTNPTQKVIDIEGCAHIVHKHGDIILVVDNTFMSPYFQRPLALGADISMYSATKYMNGHSDVVMGLVSVNSESLHNRLRFLQNSLGAVPSPIDCYLCNRGLKTLHVRMEKHFKNGMAVAQFLESNPWVEKVIYPGLPSHPQHELVKRQCTGCTGMVTFYIKGTLQHAEIFLKNLKLFTLAESLGGFESLAELPAIMTHASVLKNDRDVLGISDTLIRLSVGLEDEEDLLEDLDQALKAAHPPSGSHS | 4
human cystathionine γ-lyase C137S variant (enzyme, UniProt P32929 1-405, looked up, human cystathionine γ-lyase (CSE) with C137S; TEV and 3C protease recognition sites follow the His6 tag; also called C137S CSE; source: recombinant, pET-28b, site-directed mutagenesis of the WT vector, purified (HisTrap FF Crude, Superdex 200 SEC)) MQEKDASSQGFLPHFQHFATQAIHVGQDPEQWTSRAVVPPISLSTTFKQGAPGQHSGFEYSRSGNPTRNCLEKAVAALDGAKYCLAFASGLAATVTITHLLKAGDQIICMDDVYGGTNRYFRQVASEFGLKISFVDSSKIKLLEAAITPETKLVWIETPTNPTQKVIDIEGCAHIVHKHGDIILVVDNTFMSPYFQRPLALGADISMYSATKYMNGHSDVVMGLVSVNCESLHNRLRFLQNSLGAVPSPIDCYLCNRGLKTLHVRMEKHFKNGMAVAQFLESNPWVEKVIYPGLPSHPQHELVKRQCTGCTGMVTFYIKGTLQHAEIFLKNLKLFTLAESLGGFESLAELPAIMTHASVLKNDRDVLGISDTLIRLSVGLEDEEDLLEDLDQALKAAHPPSGSHS | 4
human cystathionine γ-lyase C307S variant (enzyme, UniProt P32929 1-405, looked up, human cystathionine γ-lyase (CSE) with C307S; TEV and 3C protease recognition sites follow the His6 tag; also called C307S CSE; source: recombinant, pET-28b, site-directed mutagenesis of the WT vector, purified (HisTrap FF Crude, Superdex 200 SEC)) MQEKDASSQGFLPHFQHFATQAIHVGQDPEQWTSRAVVPPISLSTTFKQGAPGQHSGFEYSRSGNPTRNCLEKAVAALDGAKYCLAFASGLAATVTITHLLKAGDQIICMDDVYGGTNRYFRQVASEFGLKISFVDCSKIKLLEAAITPETKLVWIETPTNPTQKVIDIEGCAHIVHKHGDIILVVDNTFMSPYFQRPLALGADISMYSATKYMNGHSDVVMGLVSVNCESLHNRLRFLQNSLGAVPSPIDCYLCNRGLKTLHVRMEKHFKNGMAVAQFLESNPWVEKVIYPGLPSHPQHELVKRQSTGCTGMVTFYIKGTLQHAEIFLKNLKLFTLAESLGGFESLAELPAIMTHASVLKNDRDVLGISDTLIRLSVGLEDEEDLLEDLDQALKAAHPPSGSHS | 4
human cystathionine γ-lyase C109S variant (enzyme, UniProt P32929 1-405, looked up, human cystathionine γ-lyase (CSE) with C109S; TEV and 3C protease recognition sites follow the His6 tag; also called C109S CSE; source: recombinant, pET-28b, site-directed mutagenesis of the WT vector, purified (HisTrap FF Crude, Superdex 200 SEC)) MQEKDASSQGFLPHFQHFATQAIHVGQDPEQWTSRAVVPPISLSTTFKQGAPGQHSGFEYSRSGNPTRNCLEKAVAALDGAKYCLAFASGLAATVTITHLLKAGDQIISMDDVYGGTNRYFRQVASEFGLKISFVDCSKIKLLEAAITPETKLVWIETPTNPTQKVIDIEGCAHIVHKHGDIILVVDNTFMSPYFQRPLALGADISMYSATKYMNGHSDVVMGLVSVNCESLHNRLRFLQNSLGAVPSPIDCYLCNRGLKTLHVRMEKHFKNGMAVAQFLESNPWVEKVIYPGLPSHPQHELVKRQCTGCTGMVTFYIKGTLQHAEIFLKNLKLFTLAESLGGFESLAELPAIMTHASVLKNDRDVLGISDTLIRLSVGLEDEEDLLEDLDQALKAAHPPSGSHS | 4
human cystathionine γ-lyase C172S variant (enzyme, UniProt P32929 1-405, looked up, human cystathionine γ-lyase (CSE) with C172S; TEV and 3C protease recognition sites follow the His6 tag; also called C172S CSE; source: recombinant, pET-28b, site-directed mutagenesis of the WT vector, purified (HisTrap FF Crude, Superdex 200 SEC)) MQEKDASSQGFLPHFQHFATQAIHVGQDPEQWTSRAVVPPISLSTTFKQGAPGQHSGFEYSRSGNPTRNCLEKAVAALDGAKYCLAFASGLAATVTITHLLKAGDQIICMDDVYGGTNRYFRQVASEFGLKISFVDCSKIKLLEAAITPETKLVWIETPTNPTQKVIDIEGSAHIVHKHGDIILVVDNTFMSPYFQRPLALGADISMYSATKYMNGHSDVVMGLVSVNCESLHNRLRFLQNSLGAVPSPIDCYLCNRGLKTLHVRMEKHFKNGMAVAQFLESNPWVEKVIYPGLPSHPQHELVKRQCTGCTGMVTFYIKGTLQHAEIFLKNLKLFTLAESLGGFESLAELPAIMTHASVLKNDRDVLGISDTLIRLSVGLEDEEDLLEDLDQALKAAHPPSGSHS | 4

From PMC8467691, “Human Cystathionine γ-Lyase Is Inhibited by S-Nitrosation: A New Crosstalk Mechanism between NO and H2S” (Antioxidants, 2021)
